# Measured values taken from the domain aggregation screens of Martell et al. (2025).
# Assay: soluble fraction after stress (log2 fold change); higher = more stays soluble; pooled small domains, quantitative proteomics
# Conditions: stress: 75 degC
# 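Also: 20 min heating vs room temperature control held 20 min.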
row,Sequence,soluble fraction (log2)
1,HMSLTEEQVDSGLKEIRLALLEADVALPVVKNFITNIKPKAIGQEIIRSTSPGQMIVKIVYDELVSIL,-0.066
2,HMSLTEESAKSLIGLTENEAVKVAAERGWTVRVAMRDGEAFMLTQDYSENRVNLTVMKTLVTAVTI,-3.32
3,HMSLTMPKLIGMHLFQAERTLNYYGFQYKVEGPDSASVVIDQYPKEGVTVDPHYPITLKIGPSA,-2.18
4,HMSLYGGYEIDIIKEEVVDAGIKLLRRRVIVADQRGISVYEGKPTFASDDQVLIKEGQYQIDKLG,-2.46
5,HMSMHVHTPNPDFKPSNTNALQEGQLVEHPKFGFGKVQKIETEGLNKKASIQFEHFGEKTLLLSFAKLRII,-1.47
6,HMSMLGTEQRVLVLGPARKGEGFLMARTDNNRIVNFEGPLSLVDTMVRVKVTDVYPHSLGGQLL,-1.51
7,HMSMPDERMLTSWMMARVKAAGKTMTRDAWNEFFERSNDSMDHMDMEMEKLLSYVYDKDGITLEDVEA,-0.223
8,HMSMQIILLDKVVNLGGLGDVVKVKDGYARNYLIPQGKAKRANTANLAEFEARRVELERLAAEQLAQAQA,-0.0666
9,HMSMRIDTNTLNYYVQNAQISLSVLRTKINNLDQFLSGEKQPTFNQLSEIAKKINVPTGLLLLNKS,-2.17
10,HMSMSKISNLLEIMMIIQYKGLTTASELAQSLGVDKKTVYRYINSLSKANIPIYTKKGRYGGFYIDKNF,-1.29
11,HMSMSTVGERIKKKRKNLNFTQQELAAKLNISAQAVSKWENGVALPDLGLMPKLAQVLESTVDGLLGYQGA,-0.756
12,HMSMTLSVLDDVRGLSESRRKQLFHSFGSIKKLREQSKETLMSIPYLPEKVALELYDKLHEE,-0.243
13,HMSMVGSVNKQGRPFALLRVDNLLYQVKVGDYLGQNYGRITQIDETQIALREIVQDAAGEWIERPGVLQL,0.294
14,HMSNATELVYDDGRKLLISYETLVGGYHPDLGWIRTAKTYSISTDKHIRNYFNNVTNPRVVGEDILETLKI,0.109
15,HMSNDRSYLARLQDYYAEHRALPSYASIGALLGLRSKSSVAALVARLKLAGFVESTPDRRLAPTRRFF,-4.01
16,HMSNEWIEISAKTVDDAINEGLIRLGTTTDKMDVEVLEKESAGFLGFIGKHDAKIRVRFKEV,-0.0738
17,HMSNGYVTAKTTVNVRKSASESGERLGVIYQGDKLELVMNQADGWTKVKYKGQTAYVKSEFM,-1.27
18,HMSNHYETLGVPRDASQEDIKRAYRRLARKLHPDVAGPGKAEEFKAVNEAYAVLSDEESRRMYDLGGDDAL,0.157
19,HMSNIQLVENLYRLRKAHHYTQQEISDLLNISRQAYSNYETSKRTPDLDSLMRLADIYGVSLDQLVNHP,-1.93

row,Sequence,soluble fraction (log2)
1,HMSNLENSLNESLSLLKSNKYNEALEILKKIEIEDSRVFFLLGTIYSVMKNINLGEEFLIKASK,-1.64
2,HMSNLGLQIVRTLTDAGKGVVFITHKLKEALTIADRINVLRRGKVVGDADPKTASESQIAEMMVGRPVQL,-0.0755
3,HMSNMWVWSKLSGIQWMDAWEDRFHGNPNTVITRLKTNKTVRVEVYTETEQEALDIKKLFGGSIRKLV,-3.09
4,HMSNRFIQFRQRAIDWLNSDRDFNAGILLLEESGFKPGVVAKLKRHGVNGPEAKKRLKFLINELVKAWA,-1.2
5,HMSNVKVYPNPTSGKLTIDAENYKGVEVYDTSGRLIVKSELRTIDLEEQSKGLYLLKVNANGTTQEFKVFK,-0.0433
6,HMSNYLKSVEVFDPITNKWSYVSAMKVRRGYVAVVATMDRLYAIGGYDGENYLSTVEMYNPDTN,0.108
7,HMSPAVSLITGKLGAETYYKQGLKKAKEKDYEGALDDLIKAYEFFPDKKIKTQVDKLASFLGKPPIL,-0.259
8,HMSPIKAGDLVKITGTKYYRGQTIPSWVKAKNWFVHSVSGDRAVINKSEDGKNAIMSPVKVSNLALVT,0.0902
9,HMSPILTPDQATKAYGKDGVLYIHSNKERTIYIYDVTGRTVRILEAVEGENQINGLEKGIYFLEGQKVAV,-1.36
10,HMSPLQLGNYNTLRITRFTDHGAYLDGGDVGEILMPKTYVLPEMKPGDEVRVFVYLDQEERLVGTTET,-0.622
11,HMSPPVIQQGQDVRLIYKGTGFAVSNEGKALNTAADGQVARARTGGGQTVSGIARPGGIIEIT,0.391
12,HMSPQPPNQEAVRTRILDQAAHLFLTIGYAETTVRRIAGAVGIKAASLYHHFGSKDEVFESILIR,0.274
13,HMSPRADRSVNLDVGETVQIDDWGADGTAQIRYRGAPWTAVLRPGHTPHPGPHRVIELVGSRLLVEP,0.0352
14,HMSPRAIYVTTSDLNMRMQPSPNAYKRGVAPRGTELLVVEWGDDWSKVIFEGDTAYAASRYLSYVKDEP,-1.74
15,HMSQDEVVADMKADLGPDADNIIRSNIQWADGLVRKGILTESEREELDVMGGTPEAQRILVKLRTMQG,0.178
16,HMSQDTLIENGKVFLIHKVVAGQTLYGLSKAYNITIEDIIKYNPQAENGIKIGEDIKIFLKEE,-0.924
17,HMSQEHTVPDYKDMEATVVYADLTQKGLNYEIAQETSPTIKEGNVTQTIPGMNEKVVSGDTITVFVSTGTG,0.431
18,HMSQIDLQIGHKIKSKRRKLGISQADMAKKLYISPSYLNLIESGKRKINVDLLLKLSNELGIEMSDIS,-1.97
19,HMSQIILSARSGHAALRHRLGELGYTFADKEFDDIYERFLEVADQKKEVYDEDLESIVQERQRD,0.00498
